From patent US20190262387A1 come the findings set out here.

No end group written: not given here.

Experiment [1] addresses collagen I (thin coating on polystyrene tissue culture plate). The experiment is described as follows: normalized fluorescence of PEG-fluorescein conjugated peptide on collagen I coated plate after washing; reference is scrambled collagen I binding peptide (FIG. 2D).
In experiment [2] the target is collagen II (thin coating on polystyrene tissue culture plate). The experiment is described as follows: normalized fluorescence of PEG-fluorescein conjugated peptide on collagen II coated plate after washing; reference is scrambled collagen II binding peptide (FIG. 2I).

The molecule YSFYSDESLQ (also: conjugated to PEG-fluorescein, site not given here) [collagen I binding peptide conjugated to PEG-fluorescein] came in with a normalized fluorescence intensity relative to scrambled peptide (times that of scrambled peptide) in experiment [1] of 1.55.

Molecule WYRGRL (also: conjugated to PEG-fluorescein, site not given here) [collagen II binding peptide conjugated to PEG-fluorescein] had a normalized fluorescence intensity relative to scrambled peptide (times that of scrambled peptide) in experiment [2] of 1.65.
